Results on two molecules are retold here after patent US20100233188A1 (YEDA RESEARCH AND DEVELOPMENT, published 2010).

The target in experiment [1] is T1, MMP-9 catalytic domain (recombinant catalytic fragment without the hemopexin and pro domain, APMA activated) (human, UniProt P14780 20-707).
T1 construct: domain: catalytic fragment (without the hemopexin and pro domain); also called MMP-9 recombinant catalytic fragment; MMP9 catalytic fragment
Description: inhibition of fluorogenic peptide cleavage, fit assuming competitive inhibition; MMP-9 catalytic domain (FIG. 5).

Experiment [2] deals with T2, MT1-MMP (MMP-14) catalytic domain (UniProt P50281 112-284, limits assumed). Nature of the experiment: cell-based or functional assay.
In experiment [3] the target is TNF-alpha-converting enzyme (TACE, ADAM-17) (UniProt P78536 215-671, limits assumed). Nature of the experiment: cell-based or functional assay.
Experiment [4] concerns the target T3, full length APMA activated MMP-2 (human) (human, UniProt P08253 110-660).
T3 construct: mature; Active enzyme lacking the pro domain; also called full length MMP2 purified from Hila cells; active MMP-2
T3 sequence (looked up): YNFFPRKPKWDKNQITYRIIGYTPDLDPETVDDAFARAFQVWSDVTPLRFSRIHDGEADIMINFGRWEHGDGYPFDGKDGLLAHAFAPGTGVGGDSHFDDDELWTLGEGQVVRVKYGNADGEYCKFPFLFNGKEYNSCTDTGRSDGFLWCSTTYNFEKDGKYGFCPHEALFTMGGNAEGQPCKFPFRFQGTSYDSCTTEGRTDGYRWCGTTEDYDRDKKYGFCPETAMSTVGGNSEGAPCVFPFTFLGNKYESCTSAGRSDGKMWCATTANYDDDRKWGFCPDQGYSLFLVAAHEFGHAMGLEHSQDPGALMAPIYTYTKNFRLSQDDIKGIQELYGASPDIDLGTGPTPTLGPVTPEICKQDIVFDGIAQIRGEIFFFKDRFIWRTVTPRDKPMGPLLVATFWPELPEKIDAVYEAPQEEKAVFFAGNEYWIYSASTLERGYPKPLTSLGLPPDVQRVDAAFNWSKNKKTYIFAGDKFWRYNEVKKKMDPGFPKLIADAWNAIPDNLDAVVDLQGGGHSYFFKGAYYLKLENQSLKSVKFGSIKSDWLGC
Nature of the experiment: inhibition of fluorogenic peptide cleavage, fit to competitive inhibition; full length MMP2 purified from HeLa cells (FIG. 12B).

Experiment [5] has as its target T2, MT1-MMP (MMP-14) catalytic domain. Nature of the experiment: inhibition of fluorogenic peptide cleavage, fit to competitive inhibition; catalytic domain of MT1-MMP (FIG. 12B).
The target is the same in experiment [6]. Description: in-vitro fluorescence enzymatic activity assay with peptide substrate.
Experiment [7] deals with T3, full length APMA activated MMP-2 (human). Nature of the experiment: inhibition of fluorogenic peptide cleavage, fit assuming competitive inhibition; full length APMA activated MMP-2 (FIG. 5).
Experiment [8] concerns the target T1, MMP-9 catalytic domain (recombinant …). Description: inhibition of fluorogenic peptide cleavage, fit to competitive inhibition; MMP-9 recombinant catalytic fragment (FIG. 12A).
The target of experiment [9] is MMP-2 (active; construct not stated at that place) (Mus musculus (Mouse), UniProt P33434 110-467, catalytic and structural zinc and calcium ions are bound; the letters cannot show them). Nature of the experiment: cell-based or functional assay.
The target in experiment [10] is T4, MMP-2 catalytic domain (MMP-2cat), amino acids 110-467 of GenBank NP-032636.1 (UniProt P33434 110-467).
T4 construct: range 110-467; also called MMP2 catalytic fragment; recombinant MMP-2 catalytic domain
Nature of the experiment: enzyme kinetics with fluorogenic peptide substrate, Lineweaver-Burk plot, competitive inhibition; MMP-2cat (FIG. 4A).

In experiment [11] the target is T5, full length APMA activated MMP-9 (human) (human, UniProt P14780 107-707).
T5 construct: mature; Active enzyme lacking the pro domain; also called active MMP-9 (full length)
Description: enzyme kinetics with fluorogenic peptide substrate, Lineweaver-Burk plot, competitive inhibition; full length APMA activated MMP-9 (FIG. 4B).

Sequence of TNF-alpha-converting enzyme (TACE, ADAM-17) (P78536 215-671 limits assumed): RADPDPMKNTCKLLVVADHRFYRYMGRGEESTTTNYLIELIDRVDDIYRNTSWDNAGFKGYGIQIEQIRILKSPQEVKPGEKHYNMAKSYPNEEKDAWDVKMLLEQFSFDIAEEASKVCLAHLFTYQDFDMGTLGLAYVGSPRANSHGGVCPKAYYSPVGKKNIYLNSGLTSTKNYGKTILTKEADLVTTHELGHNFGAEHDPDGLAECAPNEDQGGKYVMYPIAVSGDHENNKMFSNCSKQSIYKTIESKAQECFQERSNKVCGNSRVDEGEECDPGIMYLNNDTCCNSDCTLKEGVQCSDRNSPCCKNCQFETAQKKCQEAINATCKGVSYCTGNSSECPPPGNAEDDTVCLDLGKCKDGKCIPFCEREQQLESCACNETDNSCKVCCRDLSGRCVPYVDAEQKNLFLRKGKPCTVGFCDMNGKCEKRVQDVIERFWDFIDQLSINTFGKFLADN
T1 sequence (P14780 20-707): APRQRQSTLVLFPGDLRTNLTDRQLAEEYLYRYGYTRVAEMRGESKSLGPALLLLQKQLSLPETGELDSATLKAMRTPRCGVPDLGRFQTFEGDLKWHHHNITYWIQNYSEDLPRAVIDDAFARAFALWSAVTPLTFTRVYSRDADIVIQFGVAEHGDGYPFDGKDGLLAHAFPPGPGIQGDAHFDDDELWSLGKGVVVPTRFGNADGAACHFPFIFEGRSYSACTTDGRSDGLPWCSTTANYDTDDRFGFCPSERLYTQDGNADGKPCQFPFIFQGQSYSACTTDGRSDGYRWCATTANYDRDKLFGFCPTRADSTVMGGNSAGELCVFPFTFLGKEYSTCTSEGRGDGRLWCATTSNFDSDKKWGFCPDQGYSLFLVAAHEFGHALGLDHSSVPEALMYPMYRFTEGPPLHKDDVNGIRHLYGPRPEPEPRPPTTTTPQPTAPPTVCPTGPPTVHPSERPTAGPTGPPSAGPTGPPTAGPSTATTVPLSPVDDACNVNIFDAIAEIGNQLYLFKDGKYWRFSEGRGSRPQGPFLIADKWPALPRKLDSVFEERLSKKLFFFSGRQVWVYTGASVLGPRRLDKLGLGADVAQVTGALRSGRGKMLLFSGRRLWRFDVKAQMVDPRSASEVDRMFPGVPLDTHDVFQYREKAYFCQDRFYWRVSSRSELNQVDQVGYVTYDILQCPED
T5 sequence (P14780 107-707): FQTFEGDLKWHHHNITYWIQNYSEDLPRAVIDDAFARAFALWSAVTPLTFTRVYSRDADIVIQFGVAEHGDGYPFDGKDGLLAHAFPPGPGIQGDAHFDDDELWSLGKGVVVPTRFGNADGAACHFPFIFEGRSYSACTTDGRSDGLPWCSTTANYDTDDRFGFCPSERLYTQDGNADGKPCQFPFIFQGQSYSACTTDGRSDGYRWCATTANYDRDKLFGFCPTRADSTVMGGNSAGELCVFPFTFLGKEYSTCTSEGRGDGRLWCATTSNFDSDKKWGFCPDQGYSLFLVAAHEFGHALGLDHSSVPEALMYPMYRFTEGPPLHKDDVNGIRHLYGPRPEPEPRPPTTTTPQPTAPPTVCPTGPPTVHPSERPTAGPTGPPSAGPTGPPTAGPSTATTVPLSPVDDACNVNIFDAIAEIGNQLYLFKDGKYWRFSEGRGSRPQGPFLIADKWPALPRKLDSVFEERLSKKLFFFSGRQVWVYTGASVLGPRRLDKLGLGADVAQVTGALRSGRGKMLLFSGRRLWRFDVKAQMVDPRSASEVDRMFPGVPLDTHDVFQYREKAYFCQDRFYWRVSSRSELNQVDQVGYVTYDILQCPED

B1: 6C6 monoclonal antibody (anti Imisdp mAb) (antibody, V domains shown)
VH: CGGGLVKPGGSLKLSCAASGFAFSTYDMETSWIRQTPEKRLEWVATISSGGSCYTYYPDSVKGRFTISKDNARNTLYLQMETSSLRSGDTALYYCTRFRYDGWYFDVWGQG
VL: CMETTQTPLSLPVSLGDQASISCRSSQSIVHSNGNTFLEWYLQKPGQSPKLLIYKVSNCRFSGVPDRFSGSGSGTDFTLKISRVEAEDLGVYYCFQASHVPPTFGGG
As usually defined, the Ki is a measure of affinity in units of concentration, obtained from inhibition or displacement. With B1, the Ki was found to be 5.8 µM in experiment [1]; 1.4 µM in [4]; 14.4 µM in experiment [5]; 10 µM in [6]; 3 µM in experiment [7]; 1 µM in experiment [8]. Also, the entries for the “IC50 µM, inhibition of fluorogenic peptide cleavage” value in experiment [2] and in experiment [3] were 14.4 µM and above 30 µM, respectively.

B2: 13E11 monoclonal antibody (anti CoTCPP mAb) (antibody, V domains shown)
VH: EGGGLVQPGGSRKLSCAASGFTFTSFGMHWVRQAPEKGLEWVAYISSGNEIIYYADTVKGRFTISRDNPKNTLFLQMTSLRSEDTAMYYCARNYYRYGFYVMDYWGQG
VL: EIVVTQSPAILSASPGEKVTMTCRASSSVSYMHWYQQKPGSSPKPWIYATSNELASGVPARFSGSGSGTSYSLTISRVEAEDAATYYCQQWISNPLTFGAG
With B2, the “IC50 µM, inhibition of fluorogenic peptide cleavage” value in experiment [2] is above 30 µM; in [9] it was 24 µM; in experiment [3] it was above 30 µM. Also, the values for the Ki in experiment [10] and in experiment [11] were 24 µM and 13 µM, respectively.
